US20200129582A1, “NOVEL PEPTIDES AND PEPTIDOMIMETICS” (UNIVERSITY OF AUCKLAND, priority 2016, published 2020)
Residues, ends and D or L forms follow the SMILES beside them.

Legend:
[1] = target: T1, coupled gap junction channels in hCMVEC cells (Homo sapiens, UniProt P17302); type: cell-based; settings: hCMVEC, 100 μM, FIG. 5
T1 construct: A confluent monolayer of hCMVECs was pre-incubated in Peptide5; endogenous in cells; host or cells: hCMVEC
Protocol: (§1) The hCMVEC cells were plated in 1 μg/cm^2 collagen I (Gibco) 12-well plate at a density of 0.4×10^6 cells per well, and cultured overnight. A confluent monolayer of hCMVECs was pre-incubated in Peptide5 (5-100 μM) dissolved in culture medium for 2 hours or 24 hours. CBX at a concentration of 100 μM was used as a positive control. Cells were washed three times with phosphate buffered saline (PBS) without Ca^2+ or Mg^2+. The cells were then incubated in 0.05% Lucifer Yellow (LY) (Sigma), a fluorescent dye that is transferred through coupled gap junction channels (el-Fouly et al., 1987, Experimental cell research 168:422-430), +/−Peptide5 dissolved in PBS, and scrape-wounded with a size 10 carbon steel surgical blade (Swann-Morton, England). Following 5-minute incubation at 37° C. in 95% O2 and 5% CO2 without light, the 0.05% LY solution was removed. Cells were rinsed four times with PBS with Ca^2+ or Mg^2+, and then fixed in 4% paraformaldehyde (PFA) in PBS at pH 7.4 for 10 minutes at room temperature. Cells were then washed 3 times in PBS to remove PFA before fluorescent imaging. Fluorescent images were visualised using a Nikon TE2000E inverted fluorescent microscope (10× magnification, 0.3 numerical aperture), and captured using a Digital Sight CCD camera and Eclipse Net software (Nikon). Three images within each well from three independent experiments were taken for analysis and the total number of cells showing dye uptake from those that had been loaded were counted manually by masked observers.
as §1, with “1987),” for “1987, Experimental cell research 168:422-430),”

Solubility in miliQ H2O = type: physicochemical
Protocol: For cell scrape load—dye coupling assays of gap junctions, induced protein distribution changes and ATP release studies of hemichannel block, Connexin43 mimetic peptide (Peptide5, sequence VDCFLSRPTEKT (SEQ ID NO: 45)) (Auspep, Australia) was synthesized at purity >95% and dissolved in miliQ H2O at a stock concentration of 10 mM. For competition assays extracellular loop matching peptides were custom synthesised and dissolved in miliQ H2O at a stock concentration of 1 mM according to purity supplied by the manufacturer (Auspep, Australia). For Peptide5 sequence substitution studies, peptides were generated in the School of Chemical Sciences, University of Auckland. The peptides were prepared using Fmoc solid phase synthesis. Fmoc-Thr(tBu)-OH or Fmoc-Ala-OH pre-loaded to the HMPP linker and attached to in-house prepared aminomethyl PS resin 2.1 (using DIC in DMF). This was followed by alternating de-protection and coupling reactions using 5% piperazine containing 0.1 M 6-Cl-HOBt and HBTU and NMM respectively via automated Tribute Fmoc-SPPS. Resin cleavage using TFA afforded crude products, which underwent purification via semi-preparative RP-HPLC. Peptides were obtained in high purity (>95%) and with good yields (17%-46%). All alanine substituted analogues were miliQ H2O soluble (Table 5).
Peptide5 interacting site on the Connexin43 protein was determined using a competition assay. […]

[2] = target: T2, hemichannel-mediated ATP release from hCMVEC cells (Homo sapiens, UniProt P17302); experiment: In vitro ischemia injury ATP release assay (single alanine substituted and truncated peptides); type: cell-based
T2 construct: endogenous in cells; host or cells: hCMVEC (human cerebral microvascular endothelial cells)
Protocol: The human cerebral endothelial cells (hCMVEC) were plated at a density of 0.025×10^6 cells per well in a collagen-coated 12-well plate (1 μg/cm^2) a day prior to the experiment. Cells were incubated in culture medium overnight. Hypoxic, acidic, ion-shifted Ringer injury solution that mimics ionic concentrations and acid-base shifts of the interstitial space in hypoxic-ischemic brains (Bondarenko and Chesler, 2001, […]) was used to trigger hemichannel opening. The injury solution contained (in mM): 38 NaCl, 13 NaHCO3, 3 Na-gluconate, 65 K-gluconate, 38 NMDG-Cl, 1 NaH2PO4, and 1.5 MgCl2. The injury solution was bubbled in 95% N2, 5% CO2 gas (20 L/min) for 5 minutes and pH adjusted to 6.6 before use. The standard ringer solution contained (in mM): 124 NaCl, 3 KCl, 26 NaHCO3, 26 NaHCO3, 1 NaH2PO4, 1.3 CaCl2, 1.5 MgCl2, and 10 Glucose, and pH adjusted to 7.4 before use (Bondarenko and Chesler, 2001). In the ischemia injury model, hCMVEC cells were incubated for 2 hours in 500 μL injury solution+/−Peptide5 (100 μM) (O'Carroll et al., 2008, Cell communication & adhesion 15:27-42; Danesh-Meyer et al., 2012, Brain: a journal of neurology 135:506-520; Davidson et al., 2012, Annals of neurology 71:121-132; Davidson et al., 2013, Experimental neurology 248:301-308; Davidson et al., 2014, PloS one 9:e96558; Davidson et al., 2015, J Cereb Blood Flow Metab), or +/−extracellular loop sequences (Table 5), or modified peptides (Table 2, 3) dissolved in injury solution (500 μL) with a final concentration of 100 μM. For negative control, hCMVEC cells were incubated only in 500 μL standard ringer solution for 2 hours. For positive control, hCMVEC cells were incubated only in 500 μL […] for 2 hours. All incubations were conducted at 37° C. in 95% O2 and 5% CO2. At the end of each experiment, samples were removed and immediately placed on ice. The concentration of ATP in the samples was determined using a Luciferin/luciferase bioluminescence reaction (ATP Determination Kit, Molecular Probes) and detected using a luminescence plate reader (VICTOR X, Perkin Elmer #2030-0010). Standard curves were generated in each experiment from an ATP standard (0 to 500 nM) to convert bioluminescence units to ATP concentration. […] The data is presented as mean±standard error relative to the injury or injury-reperfusion positive control. Statistically significant differences between samples were tested using one-way analysis of variance and Tukey's multiple comparisons test.
Peptides listed in table 5 and 2 were assessed using the ischemia injury model in hCMVEC cells as described above, and the medium was collected for ATP release measurement.
The human cerebral endothelial cells (hCMVEC) were plated at a density of 0.025×10^6 cells per well in a collagen-coated 12-well plate (1 μg/cm^2) a day prior to the experiment. Cells were incubated in culture medium overnight. Hypoxic, acidic, ion-shifted Ringer injury solution that mimics ionic concentrations and acid-base shifts of the interstitial space in hypoxic-ischemic brains (Bondarenko and Chesler, 2001) was used to trigger hemichannel opening. The injury solution contained (in mM): 38 NaCl, 13 NaHCO3, 3 Na-gluconate, 65 K-gluconate, 38 NMDG-Cl, 1 NaH2PO4, and 1.5 MgCl2. The injury solution was bubbled in 95% N2, 5% CO2 gas (20 L/min) for 5 minutes and pH adjusted to 6.6 before use. The standard ringer solution contained (in mM): 124 NaCl, 3 KCl, 26 NaHCO3, 26 NaHCO3, 1 NaH2PO4, 1.3 CaCl2, 1.5 MgCl2, and 10 Glucose, and pH adjusted to 7.4 before use (Bondarenko and Chesler, 2001).

[3] = target: T3, Connexin43 plaques in ARPE-19 cells (Homo sapiens, UniProt P17302); experiment: Immunocytochemistry and quantification of Cx43 plaques; type: cell-based; settings: 2- or 6-hour treatment, Peptide5 50-500 μM, LaCl3 and CBX 500 μM
T3 construct: a cell line with high endogenous expression of connexin43; endogenous in cells; host or cells: ARPE-19
Protocol: (§2) ARPE-19 cells were grown until confluent in 8-well glass chamber-slides (BD Falcon). Confluent monolayers of ARPE-19 cells were incubated at a final concentration of 50 to 500 μM Peptide5, 500 μM LaCl3 and 500 μM CBX in culture medium for 2 or 6 hours. Cells were fixed in 4% PFA (ProSciTech) at pH 7.4 for 10 min at room temperature, permeabilized with 0.05% Triton-X100 in PBS, and incubated in 10% normal goat serum to block non-specific labelling. Cells were rinsed three times with PBS containing 0.1 mM CaCl2 between each fixation, permeabilization, and blocking steps. Connexin43 polyclonal rabbit antibody (C6219, Sigma, 1:2000) was applied overnight, followed by a goat anti-rabbit Alexa Fluor® 568 secondary antibody (Invitrogen, 1:200) for 45 minutes. Nuclei were counterstained with DAPI (Invitrogen) at 10,000-fold dilution for 5 mins, and mounted with Citifluor™ mounting medium. Images were visualised and captured using an oil immersion lens (60× magnification, 1.35 numerical aperture) on an Olympus FV1000 upright confocal laser scanning microscope and Olympus FV10-ASW 4.0 software. The Transfluor feature in MetaXpress® Image acquisition and analysis software (Version 5.3.0.1, Molecular Devices) was used to quantify the total area of Connexin43 plaques per image.
as §2

T2 sequence (P17302 2-382 limits assumed): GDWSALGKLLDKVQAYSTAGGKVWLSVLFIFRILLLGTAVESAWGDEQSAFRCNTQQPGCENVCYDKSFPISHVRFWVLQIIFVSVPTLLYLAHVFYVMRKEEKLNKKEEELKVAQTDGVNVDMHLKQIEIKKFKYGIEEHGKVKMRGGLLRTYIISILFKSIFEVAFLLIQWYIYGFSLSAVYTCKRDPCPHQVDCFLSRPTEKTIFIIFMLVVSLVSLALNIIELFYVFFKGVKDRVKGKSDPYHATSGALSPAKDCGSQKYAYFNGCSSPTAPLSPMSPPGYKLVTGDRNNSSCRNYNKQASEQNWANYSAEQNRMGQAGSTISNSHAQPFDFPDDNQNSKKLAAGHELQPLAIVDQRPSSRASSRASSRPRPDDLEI
T3 sequence (P17302 2-382 limits assumed): as above

## RFKPSLCTTDEV [scrambled peptide]
[1]
  LY dye transfer, comparison in words: no significant difference

## CC[C@H](C)[C@H](NC(=O)[C@H](Cc1ccc(O)cc1)NC(=O)[C@H](Cc1c[nH]c2ccccc12)NC(=O)[C@H](CCC(N)=O)NC(=O)[C@@H](NC(=O)[C@H](CC(C)C)NC(=O)[C@H](CC(C)C)NC(=O)[C@@H](N)Cc1ccccc1)[C@@H](C)CC)C(=O)N[C@@H](Cc1ccc(O)cc1)C(=O)NCC(=O)N[C@@H](Cc1ccccc1)C(=O)N[C@@H](CO)C(=O)N[C@@H](CC(C)C)C(=O)N[C@@H](CO)C(=O)N[C@@H](C)C(=O)N[C@H](C(=O)N[C@@H](Cc1ccc(O)cc1)C(=O)N[C@H](C(=O)N[C@@H](CS)C(=O)O)[C@@H](C)O)C(C)C [EL2a, FLLIQ WYIYG FSLSA VYTC] (H-FLLIQWYIYGFSLSAVYTC-OH; N-terminus and C-terminus assumed)
Solubility in miliQ H2O
  solubility in miliQ H2O: soluble in miliQ H2O except for the EL2a sequence

## SRPTEKT [mod-3]
[1]; 2-hour exposure, untreated control 100±4.5%
  LY dye transfer, % of the untreated control: 77.6±4.8%
[1]
  LY dye transfer, comparison in words: comparable to the native Peptide5
[2]; hCMVEC, 100 μM, FIG. 4
  ATP release compared to injury control (in words): not significantly different to the injury control
  ATP release compared to native Peptide5 (in words): significantly greater ATP release

## [Cl][La]([Cl])[Cl] [LaCl3, Lanthanum chloride, reference compound]
[3]
  Connexin43 labelling per cell compared to untreated control (in words): not significantly different to the control
[2]
  ATP release, % of the injury control: 47.8±13.6%
[2]; hCMVEC, 100 μM, FIG. 3
  ATP release compared to injury control (in words): significantly reduced ATP release
